These results are taken from article PMC11162425.

Test [1] has as its target Lcl-N GFP fusion (N-GFP) (Legionella pneumophila strain 130b). Briefly: SEC.
In test [2] the target is Legionella collagen-like protein (Lcl) from L. pneumophila strain 130b, intact recombinant (residues 1-401) (Legionella pneumophila strain 130b). Briefly: SEC-MALS. (In gel filtration, larger molecules generally elute earlier.)

On to “Lcl-N GFP fusion (N-GFP) (domain or fragment)”, for which, in test [1], the stoichiometry N (in general, a count of units in the complex or per binding partner) is 3.
With “Legionella collagen-like protein (Lcl) from L. pneumophila strain 130b, intact recombinant (residues 1-401) (natural protein)”, in test [2], the stoichiometry N is 3.
